In assay [1] the target is T1, monkey CD3, on activated monkey PBMC (monkey).
T1 construct: whole, on cells
As to the kind of experiment: FACS, activated monkey PBMC.

Assay [2] deals with T2, human BCMA (B cell maturation antigen), expressed on cells (human, UniProt Q02223 1-184).
T2 construct: whole, on cells; Overexpressed on Flp-in CHO cells; also called Flp-inCHO-human BCMA cells; CD269
T2 sequence (looked up): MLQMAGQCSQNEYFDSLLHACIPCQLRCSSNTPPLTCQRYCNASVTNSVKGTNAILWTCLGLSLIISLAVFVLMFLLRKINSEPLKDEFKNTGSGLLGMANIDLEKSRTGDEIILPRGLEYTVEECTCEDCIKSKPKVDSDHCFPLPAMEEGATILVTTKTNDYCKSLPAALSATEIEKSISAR
The experiment in a line: FACS, Flp-inCHO-human BCMA cells. Here is the method:
(§1) Flp-inCHO-human BCMA cells and CHOK1-human GPRC5D cells were scale-up cultured in T-75 cell culture flask to the logarithmic growth phase, respectively, and the cells were pipetted to obtain a single cell suspension. After the cells were counted and centrifuged, the cell precipitate was resuspended to 2×10⁶ cells per milliliter with a FACS buffer (PBS+2% fetal bovine serum). The suspension was added to a 96-well FACS reaction plate at 50 μl/well. 8 concentrations of the anti-BCMA-GPRC5D-CD3 antibodies or control antibodies were added at 50 μl/well, wherein gradient dilution was performed at a dilution ratio of 5 from a concentration of 100 nM. The cells were incubated at 4° C. for 1 h. The obtained mixture was centrifuged and washed 3 times with a PBS buffer. […] The obtained mixture was centrifuged and washed 3 times with a PBS buffer. 100 μl of the mixture was taken for detection and result analysis by FACS (FACS Canto™, purchased from BD Company). Data analysis was performed by software (FlowJo) to obtain the mean fluorescence intensity (MFI) of the cells. Then, a software (GraphPad Prism8) was used for analysis, data fitting and EC50 calculation.
In general terms: In flow cytometry, cells or beads pass a laser one at a time.

Assay [3] deals with T3, human GPRC5D, expressed on cells (human, UniProt Q9NZD1 1-345).
T3 construct: whole, on cells; Overexpressed on CHOK1 cells; also called CHOK1-human GPRC5D cells
T3 sequence (Q9NZD1 whole entry): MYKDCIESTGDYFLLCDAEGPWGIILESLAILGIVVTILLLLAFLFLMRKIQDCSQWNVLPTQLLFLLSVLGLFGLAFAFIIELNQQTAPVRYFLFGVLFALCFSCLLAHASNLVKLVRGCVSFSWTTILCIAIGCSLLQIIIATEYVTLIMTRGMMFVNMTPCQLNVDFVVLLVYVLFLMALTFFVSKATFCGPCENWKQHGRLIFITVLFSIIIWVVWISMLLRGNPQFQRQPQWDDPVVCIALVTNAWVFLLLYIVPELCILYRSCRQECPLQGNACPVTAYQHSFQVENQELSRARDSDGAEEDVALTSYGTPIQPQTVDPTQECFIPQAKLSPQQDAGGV
As to the kind of experiment: FACS, CHOK1-human GPRC5D cells. Here is the method: as §1

Positions count from the first letter of the chain named. “And” between values parts separate entries of the source, which are not always exact repeats. Equal values may be shown once.

T1 sequence (Q95LI5 22-198): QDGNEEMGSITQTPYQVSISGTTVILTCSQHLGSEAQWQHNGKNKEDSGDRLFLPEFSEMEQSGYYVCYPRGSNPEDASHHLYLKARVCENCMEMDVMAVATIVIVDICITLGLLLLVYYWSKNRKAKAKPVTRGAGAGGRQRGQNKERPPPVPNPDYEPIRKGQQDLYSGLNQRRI

B1: JNJ7564 (bispecific antibody targeting GPRC5D and CD3, Johnson & Johnson, WO 2019220368 A1) (bispecific antibody, human IgG4 S228P, kappa, lambda, F234A L235A)
heavy 1: not shown
light 1: DIQMTQSPSSLSASVGDRVTITCKASQNVATHVGWYQQKPGKAPKRLIYSASYRYSGVPSRFSGSGSGTEFTLTISNLQPEDFATYYCQQYNRYPYTFGQGTKLEIKRTVAAPSVFIFPPSDEQLKSGTASVVCLLNNFYPREAKVQWKVDNALQSGNSQESVTEQDSKDSTYSLSSTLTLSKADYEKHKVYACEVTHQGLSSPVTKSFNRGEC
heavy 2: EVQLVESGGGLVQPGGSLRLSCAASGFTFNTYAMNWVRQAPGKGLEWVARIRSKYNNYATYYAASVKGRFTISRDDSKNSLYLQMNSLKTEDTAVYYCARHGNFGNSYVSWFAYWGQGTLVTVSSASTKGPSVFPLAPCSRSTSESTAALGCLVKDYFPEPVTVSWNSGALTSGVHTFPAVLQSSGLYSLSSVVTVPSSSLGTKTYTCNVDHKPSNTKVDKRVESKYGPPCPPCPAPEAAGGPSVFLFPPKPKDTLMISRTPEVTCVVVDVSQEDPEVQFNWYVDGVEVHNAKTKPREEQFNSTYRVVSVLTVLHQDWLNGKEYKCKVSNKGLPSSIEKTISKAKGQPREPQVYTLPPSQEEMTKNQVSLTCLVKGFYPSDIAVEWESNGQPENNYKTTPPVLDSDGSFLLYSKLTVDKSRWQEGNVFSCSVMHEALHNHYTQKSLSLSLGK
light 2: QTVVTQEPSLTVSPGGTVTLTCRSSTGAVTTSNYANWVQQKPGQAPRGLIGGTNKRAPGTPARFSGSLLGGKAALTLSGVQPEDEAEYYCALWYSNLWVFGGGTKLTVLGQPKAAPSVTLFPPSSEELQANKATLVCLISDFYPGAVTVAWKADSSPVKAGVETTTPSKQSNNKYAASSYLSLTPEQWKSHRSYSCQVTHEGSTVEKTVAPTECS
notes: Positive control, made by reduction and reoxidation of the two monospecific antibodies
Consider B1, for which, in assay [1], the EC50 was 5.79 nM and 5.72 nM.

B2: antiFITC×CD3-Hab01 (negative control antibody, prepared internally) (bispecific antibody, human IgG4 S228P, kappa, F234A L235A)
heavy: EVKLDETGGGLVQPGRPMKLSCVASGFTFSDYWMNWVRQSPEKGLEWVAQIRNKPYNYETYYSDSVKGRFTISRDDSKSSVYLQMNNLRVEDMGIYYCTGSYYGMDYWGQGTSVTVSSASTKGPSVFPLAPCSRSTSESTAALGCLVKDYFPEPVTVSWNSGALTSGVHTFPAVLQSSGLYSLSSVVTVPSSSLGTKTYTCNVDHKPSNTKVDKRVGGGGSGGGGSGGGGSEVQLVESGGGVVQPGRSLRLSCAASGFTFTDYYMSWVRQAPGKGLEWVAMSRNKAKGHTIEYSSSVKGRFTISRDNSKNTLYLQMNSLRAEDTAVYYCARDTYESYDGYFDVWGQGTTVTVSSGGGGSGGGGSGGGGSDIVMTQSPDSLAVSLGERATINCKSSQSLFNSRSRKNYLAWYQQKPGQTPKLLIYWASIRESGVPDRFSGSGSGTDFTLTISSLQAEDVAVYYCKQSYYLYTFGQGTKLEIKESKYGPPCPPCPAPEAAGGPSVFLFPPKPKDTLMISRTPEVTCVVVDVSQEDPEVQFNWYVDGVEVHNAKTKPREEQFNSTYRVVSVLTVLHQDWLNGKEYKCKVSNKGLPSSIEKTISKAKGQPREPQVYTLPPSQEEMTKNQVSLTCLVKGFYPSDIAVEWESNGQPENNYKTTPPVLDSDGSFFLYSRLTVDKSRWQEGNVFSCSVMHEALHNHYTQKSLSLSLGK
light: DVVMTQTPLSLPVSLGDQASISCRSSQSLVHSNGNTYLRWYLQKPGQSPKVLIYKVSNRFSGVPDRFSGSGSGTDFTLKISRVEAEDLGVYFCSQSTHVPWTFGGGTKLEIKRTVAAPSVFIFPPSDEQLKSGTASVVCLLNNFYPREAKVQWKVDNALQSGNSQESVTEQDSKDSTYSLSSTLTLSKADYEKHKVYACEVTHQGLSSPVTKSFNRGEC
notes: Negative control for the tumor antigens
On to B2, for which the EC50 in assay [1] was 15.2 nM and 12.4 nM.

B3: Tri-65 anti-BCMA-GPRC5D-CD3 trispecific antibody (other)
VHH: EVQLVESGGGLVQPGGSLRLSCAASESISSIHIMAWYRQAPGKQRELVAGIRNDGSTVYVDSVKGRFTISRDNAKNSLYLQMNSLRAEDTAVYYCNADQGFGSYSEWERRSRWGQGTTVTVSS
VH 1: EVQLVQSGAEVKKPGASVKVSCKTSGYIFTNFGITWVRQAPGQRLEWMGENYPRRINTYYNEKFKGRVTITADKSASTAYMELSSLRSEDTAVYYCSRKDIFGLSYALDYWGQGTTVTVSS
VL 1: DIQMTQSPSSLSASVGDRVTITCKASQNVGTNVAWYQHKPGKSPKALIYSASYQYSGVPSRFSGSGSGTDFTLTISSLQPEDVATYICQQYKNYPYTFGGGTKVEIK
VH 2: EVQLVESGGGVVQPGRSLRLSCAASGFTFTDYYMSWVRQAPGKGLEWVAMSRNKAKGHTIEYSSSVKGRFTISRDNSKNTLYLQMNSLRAEDTAVYYCARDTYESYDGYFDVWGQGTTVTVSS
VL 2: DIVMTQSPDSLAVSLGERATINCKSSQSLFNSRSRKNYLAWYQQKPGQTPKLLIYWASIRESGVPDRFSGSGSGTDFTLTISSLQAEDVAVYYCKQSYYLYTFGQGTKLEIK
chain 1: ESKYGPPCPPCPAPEAAGGPSVFLFPPKPKDTLMISRTPEVTCVVVDVSQEDPEVQFNWYVDGVEVHNAKTKPREEQFNSTYRVVSVLTVLHQDWLNGKEYKCKVSNKGLPSSIEKTISKAKGQPREPQVYTLPPSQEEMTKNQVSLWCLVKGFYPSDIAVEWESNGQPENNYKTTPPVLDSDGSFFLYSRLTVDKSRWQEGNVFSCSVMHEALHNHYTQKSLSLSLG
chain 2: B3 chain 1 with W148S, L150A, Y189V
notes: Trispecific antibody; Asymmetric (purification method C)
Turning to B3, the EC50 in assay [2] is 2.54 nM; in assay [3], 1.66 nM.

B4: Tri-38 anti-BCMA-GPRC5D-CD3 trispecific antibody (other)
VHH: EVQLVESGGGLVQPGGSLRLSCSASGFTLDYYMIGWFRQAPGKEREGLSSISPADGSTYYADSVKGRFTISRDSSKNTVYLQMNSLRAEDTAVYYCAAGNEATISWGFGPWEYDYWGQGTMVTVSS
VH 1: EVQLVQSGAEVKKPGSSVKVSCKASGYTFTSYGISWVRQAPGQGLEWMGEIYPRSGNTYYNEKFKGRVTLTADKSTSTAYMELSSLRSEDTAVYYCARGRAYGRNYPMDYWGQGTTVTVSS
VL 1: EIVLTQSPATLSLSPGERATLSCRASQSIGTSIHWYQQKPGQSPRLLIKYASESISGIPARFSGSGSGTDFTLTISSLEPEDFAVYYCQQSNSWPYTFGGGTKVEIK
VH 2: B3 VH 2
VL 2: B3 VL 2
chain 1: EPKSSDKTHTCPPCPAPEAAGGPSVFLFPPKPKDTLMISRTPEVTCVVVDVSHEDPEVKFNWYVDGVEVHNAKTKPREEQYNSTYRVVSVLTVLHQDWLNGKEYKCKVSNKALPAPIEKTISKAKGQPREPQVYTLPPSREEMTKNQVSLWCLVKGFYPSDIAVEWESNGQPENNYKTTPPVLDSDGSFFLYSKLTVDKSRWQQGNVFSCSVMHEALHNHYTQKSLSLSPG
chain 2: B4 chain 1 with W151S, L153A, Y192V
notes: Trispecific antibody; Asymmetric (purification method B)
In the case of B4, the half-maximal effective concentration (EC50) in assay [2] is 4.43 nM; in assay [3] it was 2.06 nM.

B5: Tri-41 anti-BCMA-GPRC5D-CD3 trispecific antibody (other)
VHH: B4 VHH
VH 1: B4 VH 1
VL 1: B4 VL 1
VH 2: B3 VH 2
VL 2: B3 VL 2
chain 1: B4 chain 1
chain 2: B4 chain 1 with W151S, L153A, Y192V
notes: as for B4
With B5, the results for the EC50 in assay [2] and in assay [3] were 1.52 nM and 4.3 nM, respectively.

B6: Tri-66 anti-BCMA-GPRC5D-CD3 trispecific antibody (other)
VHH: B3 VHH
VH 1: B3 VH 1
VL 1: B3 VL 1
VH 2: B3 VH 2
VL 2: B3 VL 2
chain 1: B3 chain 1
chain 2: B3 chain 1 with W148S, L150A, Y189V
notes: as for B3
Turning to B6, the values for the EC50 in assay [2] and in assay [3] were 1.09 nM and 1.53 nM, respectively.

B7: REGN5459 (bispecific antibody targeting BCMA and CD3, Regeneron, WO 2020018820 A1) (bispecific antibody, human IgG4 S228P, kappa)
heavy 1: EVQLVESGGGLVQPGGSLRLSCAASGFTFSNFWMTWVRQAPGKGLEWVANMNQDGSEKYYVDSVKGRFTISRDNAKSSLYLQMNSLRAEDTAVYYCARDREYCISTSCYDDFDYWGQGTLVTVSSASTKGPSVFPLAPCSRSTSESTAALGCLVKDYFPEPVTVSWNSGALTSGVHTFPAVLQSSGLYSLSSVVTVPSSSLGTKTYTCNVDHKPSNTKVDKRVESKYGPPCPPCPAPPVAGPSVFLFPPKPKDTLMISRTPEVTCVVVDVSQEDPEVQFNWYVDGVEVHNAKTKPREEQFNSTYRVVSVLTVLHQDWLNGKEYKCKVSNKGLPSSIEKTISKAKGQPREPQVYTLPPSQEEMTKNQVSLTCLVKGFYPSDIAVEWESNGQPENNYKTTPPVLDSDGSFFLYSRLTVDKSRWQEGNVFSCSVMHEALHNHYTQKSLSLSLGK
heavy 2: EVQLVESGGGLVQPGRSLRLSCAASGFTFDDYSMHWVRQAPGKGLEWVSGISWNSGSIGYADSVKGRFTISRDNAKNSLYLQMNSLRAEDTALYYCAKYGSGYGKFYYYGMDVWGQGTTVTVSSASTKGPSVFPLAPCSRSTSESTAALGCLVKDYFPEPVTVSWNSGALTSGVHTFPAVLQSSGLYSLSSVVTVPSSSLGTKTYTCNVDHKPSNTKVDKRVESKYGPPCPPCPAPPVAGPSVFLFPPKPKDTLMISRTPEVTCVVVDVSQEDPEVQFNWYVDGVEVHNAKTKPREEQFNSTYRVVSVLTVLHQDWLNGKEYKCKVSNKGLPSSIEKTISKAKGQPREPQVYTLPPSQEEMTKNQVSLTCLVKGFYPSDIAVEWESNGQPENNYKTTPPVLDSDGSFFLYSRLTVDKSRWQEGNVFSCSVMHEALHNRFTQKSLSLSLGK
light: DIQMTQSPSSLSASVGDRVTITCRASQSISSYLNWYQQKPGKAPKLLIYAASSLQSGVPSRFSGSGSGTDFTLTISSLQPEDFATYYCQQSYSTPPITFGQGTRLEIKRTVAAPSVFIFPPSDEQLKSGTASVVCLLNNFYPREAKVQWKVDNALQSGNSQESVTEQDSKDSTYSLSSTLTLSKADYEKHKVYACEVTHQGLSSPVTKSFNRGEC
notes: Positive control, expressed in Expi293F by the applicants; also called RGEN5459
In the case of B7, a half-maximal effect in assay [1] (EC50) was put at 161 nM.

In general, EC50 refers to the midpoint of the concentration-response curve.

Source of the values: US20260265390A1 (SHANDONG SIMCERE BIOPHARMACEUTICAL, published 2026).
